Target: GST-gc-p300/CH1 fusion protein (CH1 domain of grass carp p300) (grass carp (Ctenopharyngodon idella))

Row | Substance | gcHIF-1-mediated transactivation of HRE-luciferase activity in CHO cells, change in the presence of gcCITED3a | gcHIF-1-mediated transactivation of HRE-luciferase activity in CHO cells, change in the presence of gcCITED3b
1 | gcCITED3a (grass carp CITED3a), in vitro translated (natural protein) | -40% | –
2 | gcCITED3b (grass carp CITED3b), in vitro translated (natural protein) | – | -40%
